The chains are these.
B1: Compound 195 (peptide)
peptide: Isovaleryl-APEK([AEEA-AEEA-γGlu-C18 diacid])PEEDASPEALQRYYVELRHYYNWLTRQRY-NH2
SMILES: CC(C)CC(=O)N[C@@H](C)C(=O)N1CCC[C@H]1C(=O)N[C@@H](CCC(=O)O)C(=O)N[C@@H](CCCCNC(=O)COCCOCCNC(=O)COCCOCCNC(=O)CC[C@H](NC(=O)CCCCCCCCCCCCCCCCC(=O)O)C(=O)O)C(=O)N1CCC[C@H]1C(=O)N[C@@H](CCC(=O)O)C(=O)N[C@@H](CCC(=O)O)C(=O)N[C@@H](CC(=O)O)C(=O)N[C@@H](C)C(=O)N[C@@H](CO)C(=O)N1CCC[C@H]1C(=O)N[C@@H](CCC(=O)O)C(=O)N[C@@H](C)C(=O)N[C@@H](CC(C)C)C(=O)N[C@@H](CCC(N)=O)C(=O)N[C@@H](CCCNC(=N)N)C(=O)N[C@@H](Cc1ccc(O)cc1)C(=O)N[C@@H](Cc1ccc(O)cc1)C(=O)N[C@H](C(=O)N[C@@H](CCC(=O)O)C(=O)N[C@@H](CC(C)C)C(=O)N[C@@H](CCCNC(=N)N)C(=O)N[C@@H](Cc1c[nH]cn1)C(=O)N[C@@H](Cc1ccc(O)cc1)C(=O)N[C@@H](Cc1ccc(O)cc1)C(=O)N[C@@H](CC(N)=O)C(=O)N[C@@H](Cc1c[nH]c2ccccc12)C(=O)N[C@@H](CC(C)C)C(=O)N[C@H](C(=O)N[C@@H](CCCNC(=N)N)C(=O)N[C@@H](CCC(N)=O)C(=O)N[C@@H](CCCNC(=N)N)C(=O)N[C@@H](Cc1ccc(O)cc1)C(N)=O)[C@@H](C)O)C(C)C
B2: Compound 204 (peptide)
peptide: Isovaleryl-APEK([AEEA-AEEA-γGlu-C18 diacid])PEEEASPEEVQRYYVSLRHYYNWLTRQRY-NH2
SMILES: CC(C)CC(=O)N[C@@H](C)C(=O)N1CCC[C@H]1C(=O)N[C@@H](CCC(=O)O)C(=O)N[C@@H](CCCCNC(=O)COCCOCCNC(=O)COCCOCCNC(=O)CC[C@H](NC(=O)CCCCCCCCCCCCCCCCC(=O)O)C(=O)O)C(=O)N1CCC[C@H]1C(=O)N[C@@H](CCC(=O)O)C(=O)N[C@@H](CCC(=O)O)C(=O)N[C@@H](CCC(=O)O)C(=O)N[C@@H](C)C(=O)N[C@@H](CO)C(=O)N1CCC[C@H]1C(=O)N[C@@H](CCC(=O)O)C(=O)N[C@@H](CCC(=O)O)C(=O)N[C@H](C(=O)N[C@@H](CCC(N)=O)C(=O)N[C@@H](CCCNC(=N)N)C(=O)N[C@@H](Cc1ccc(O)cc1)C(=O)N[C@@H](Cc1ccc(O)cc1)C(=O)N[C@H](C(=O)N[C@@H](CO)C(=O)N[C@@H](CC(C)C)C(=O)N[C@@H](CCCNC(=N)N)C(=O)N[C@@H](Cc1c[nH]cn1)C(=O)N[C@@H](Cc1ccc(O)cc1)C(=O)N[C@@H](Cc1ccc(O)cc1)C(=O)N[C@@H](CC(N)=O)C(=O)N[C@@H](Cc1c[nH]c2ccccc12)C(=O)N[C@@H](CC(C)C)C(=O)N[C@H](C(=O)N[C@@H](CCCNC(=N)N)C(=O)N[C@@H](CCC(N)=O)C(=O)N[C@@H](CCCNC(=N)N)C(=O)N[C@@H](Cc1ccc(O)cc1)C(N)=O)[C@@H](C)O)C(C)C)C(C)C
B3: Compound 202 (peptide)
peptide: Isovaleryl-APEK([AEEA-AEEA-γGlu-C18 diacid])PEEDAAPEELQKYYVSLRHYYNWLTRQRY-NH2
SMILES: CC(C)CC(=O)N[C@@H](C)C(=O)N1CCC[C@H]1C(=O)N[C@@H](CCC(=O)O)C(=O)N[C@@H](CCCCNC(=O)COCCOCCNC(=O)COCCOCCNC(=O)CC[C@H](NC(=O)CCCCCCCCCCCCCCCCC(=O)O)C(=O)O)C(=O)N1CCC[C@H]1C(=O)N[C@@H](CCC(=O)O)C(=O)N[C@@H](CCC(=O)O)C(=O)N[C@@H](CC(=O)O)C(=O)N[C@@H](C)C(=O)N[C@@H](C)C(=O)N1CCC[C@H]1C(=O)N[C@@H](CCC(=O)O)C(=O)N[C@@H](CCC(=O)O)C(=O)N[C@@H](CC(C)C)C(=O)N[C@@H](CCC(N)=O)C(=O)N[C@@H](CCCCN)C(=O)N[C@@H](Cc1ccc(O)cc1)C(=O)N[C@@H](Cc1ccc(O)cc1)C(=O)N[C@H](C(=O)N[C@@H](CO)C(=O)N[C@@H](CC(C)C)C(=O)N[C@@H](CCCNC(=N)N)C(=O)N[C@@H](Cc1c[nH]cn1)C(=O)N[C@@H](Cc1ccc(O)cc1)C(=O)N[C@@H](Cc1ccc(O)cc1)C(=O)N[C@@H](CC(N)=O)C(=O)N[C@@H](Cc1c[nH]c2ccccc12)C(=O)N[C@@H](CC(C)C)C(=O)N[C@H](C(=O)N[C@@H](CCCNC(=N)N)C(=O)N[C@@H](CCC(N)=O)C(=O)N[C@@H](CCCNC(=N)N)C(=O)N[C@@H](Cc1ccc(O)cc1)C(N)=O)[C@@H](C)O)C(C)C
B4: Compound 197 (peptide)
peptide: Isovaleryl-APAK([AEEA-AEEA-γGlu-C18 diacid])PEADASPEELQRYYVELRHYYNWLTRQRY-NH2
SMILES: CC(C)CC(=O)N[C@@H](C)C(=O)N1CCC[C@H]1C(=O)N[C@@H](C)C(=O)N[C@@H](CCCCNC(=O)COCCOCCNC(=O)COCCOCCNC(=O)CC[C@H](NC(=O)CCCCCCCCCCCCCCCCC(=O)O)C(=O)O)C(=O)N1CCC[C@H]1C(=O)N[C@@H](CCC(=O)O)C(=O)N[C@@H](C)C(=O)N[C@@H](CC(=O)O)C(=O)N[C@@H](C)C(=O)N[C@@H](CO)C(=O)N1CCC[C@H]1C(=O)N[C@@H](CCC(=O)O)C(=O)N[C@@H](CCC(=O)O)C(=O)N[C@@H](CC(C)C)C(=O)N[C@@H](CCC(N)=O)C(=O)N[C@@H](CCCNC(=N)N)C(=O)N[C@@H](Cc1ccc(O)cc1)C(=O)N[C@@H](Cc1ccc(O)cc1)C(=O)N[C@H](C(=O)N[C@@H](CCC(=O)O)C(=O)N[C@@H](CC(C)C)C(=O)N[C@@H](CCCNC(=N)N)C(=O)N[C@@H](Cc1c[nH]cn1)C(=O)N[C@@H](Cc1ccc(O)cc1)C(=O)N[C@@H](Cc1ccc(O)cc1)C(=O)N[C@@H](CC(N)=O)C(=O)N[C@@H](Cc1c[nH]c2ccccc12)C(=O)N[C@@H](CC(C)C)C(=O)N[C@H](C(=O)N[C@@H](CCCNC(=N)N)C(=O)N[C@@H](CCC(N)=O)C(=O)N[C@@H](CCCNC(=N)N)C(=O)N[C@@H](Cc1ccc(O)cc1)C(N)=O)[C@@H](C)O)C(C)C
B5: Compound 196 (peptide)
peptide: Isovaleryl-APAK([AEEA-AEEA-γGlu-C18 diacid])PPEDAEPEELQRYYVSLRHYYNWLTRQRY-NH2
SMILES: CC(C)CC(=O)N[C@@H](C)C(=O)N1CCC[C@H]1C(=O)N[C@@H](C)C(=O)N[C@@H](CCCCNC(=O)COCCOCCNC(=O)COCCOCCNC(=O)CC[C@H](NC(=O)CCCCCCCCCCCCCCCCC(=O)O)C(=O)O)C(=O)N1CCC[C@H]1C(=O)N1CCC[C@H]1C(=O)N[C@@H](CCC(=O)O)C(=O)N[C@@H](CC(=O)O)C(=O)N[C@@H](C)C(=O)N[C@@H](CCC(=O)O)C(=O)N1CCC[C@H]1C(=O)N[C@@H](CCC(=O)O)C(=O)N[C@@H](CCC(=O)O)C(=O)N[C@@H](CC(C)C)C(=O)N[C@@H](CCC(N)=O)C(=O)N[C@@H](CCCNC(=N)N)C(=O)N[C@@H](Cc1ccc(O)cc1)C(=O)N[C@@H](Cc1ccc(O)cc1)C(=O)N[C@H](C(=O)N[C@@H](CO)C(=O)N[C@@H](CC(C)C)C(=O)N[C@@H](CCCNC(=N)N)C(=O)N[C@@H](Cc1c[nH]cn1)C(=O)N[C@@H](Cc1ccc(O)cc1)C(=O)N[C@@H](Cc1ccc(O)cc1)C(=O)N[C@@H](CC(N)=O)C(=O)N[C@@H](Cc1c[nH]c2ccccc12)C(=O)N[C@@H](CC(C)C)C(=O)N[C@H](C(=O)N[C@@H](CCCNC(=N)N)C(=O)N[C@@H](CCC(N)=O)C(=O)N[C@@H](CCCNC(=N)N)C(=O)N[C@@H](Cc1ccc(O)cc1)C(N)=O)[C@@H](C)O)C(C)C
B6: Compound 199 (peptide)
peptide: Isovaleryl-APEK([AEEA-AEEA-γGlu-C18 diacid])PEEDAEPEETQRYYVSLRHYYNWLTRQRY-NH2
SMILES: CC(C)CC(=O)N[C@@H](C)C(=O)N1CCC[C@H]1C(=O)N[C@@H](CCC(=O)O)C(=O)N[C@@H](CCCCNC(=O)COCCOCCNC(=O)COCCOCCNC(=O)CC[C@H](NC(=O)CCCCCCCCCCCCCCCCC(=O)O)C(=O)O)C(=O)N1CCC[C@H]1C(=O)N[C@@H](CCC(=O)O)C(=O)N[C@@H](CCC(=O)O)C(=O)N[C@@H](CC(=O)O)C(=O)N[C@@H](C)C(=O)N[C@@H](CCC(=O)O)C(=O)N1CCC[C@H]1C(=O)N[C@@H](CCC(=O)O)C(=O)N[C@@H](CCC(=O)O)C(=O)N[C@H](C(=O)N[C@@H](CCC(N)=O)C(=O)N[C@@H](CCCNC(=N)N)C(=O)N[C@@H](Cc1ccc(O)cc1)C(=O)N[C@@H](Cc1ccc(O)cc1)C(=O)N[C@H](C(=O)N[C@@H](CO)C(=O)N[C@@H](CC(C)C)C(=O)N[C@@H](CCCNC(=N)N)C(=O)N[C@@H](Cc1c[nH]cn1)C(=O)N[C@@H](Cc1ccc(O)cc1)C(=O)N[C@@H](Cc1ccc(O)cc1)C(=O)N[C@@H](CC(N)=O)C(=O)N[C@@H](Cc1c[nH]c2ccccc12)C(=O)N[C@@H](CC(C)C)C(=O)N[C@H](C(=O)N[C@@H](CCCNC(=N)N)C(=O)N[C@@H](CCC(N)=O)C(=O)N[C@@H](CCCNC(=N)N)C(=O)N[C@@H](Cc1ccc(O)cc1)C(N)=O)[C@@H](C)O)C(C)C)[C@@H](C)O

*1 amine or outer side, *2 acyl side, *3 side chain or, on linkers, in order; H or OH if unused. Side-chain parts run from the residue outwards. The star is where a group is joined. C18 diacid = O=C(O)CCCCCCCCCCCCCCCCC(=O)*; γGlu = O=C(O)[C@H](CCC(=O)[*:2])N[*:1]; Isovaleryl = CC(C)CC(=O)*; AEEA = NCCOCCOCC(=O)O

For the test, the target named is T1, human neuropeptide Y2 receptor (human, UniProt P49146 1-381).
T1 construct: whole, on cells; also called hNPY2 receptor; hNPY2-R
T1 sequence (looked up): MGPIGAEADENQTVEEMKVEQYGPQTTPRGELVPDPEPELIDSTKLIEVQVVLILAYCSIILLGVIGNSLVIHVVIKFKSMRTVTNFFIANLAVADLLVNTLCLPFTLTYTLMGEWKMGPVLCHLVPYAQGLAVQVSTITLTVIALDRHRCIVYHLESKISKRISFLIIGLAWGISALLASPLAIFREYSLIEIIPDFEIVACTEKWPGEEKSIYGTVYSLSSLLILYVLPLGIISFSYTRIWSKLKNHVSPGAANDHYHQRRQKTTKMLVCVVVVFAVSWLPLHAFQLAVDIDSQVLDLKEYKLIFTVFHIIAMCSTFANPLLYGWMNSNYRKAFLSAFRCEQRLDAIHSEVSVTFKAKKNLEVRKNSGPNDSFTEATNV
Briefly: radioligand competition (125I-PYY(1-36)), hNPY2R membranes. Put shortly:
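Commercial human Y2 receptor membranes (0.5 μg protein/well) were incubated with peptide for 2 h at room temperature in 50 mM HEPES, 5 mM MgCl₂, 1 mM CaCl₂, pH 7.4, with 0.2% ovalbumin. Bound radioligand was separated on PEI-soaked GF/C filters and counted by scintillation, and IC₅₀ came from nonlinear sigmoidal regression.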
The term Ki denotes the dissociation constant of the complex between target and ligand, obtained from inhibition or displacement. A low value points to higher affinity. In turn, B1 returned a Ki of 0.75 nM.
The value for B2 was 3.35 nM; that for B3 was 0.6 nM.
The molecule B4 came in with a Ki of 0.87 nM. The Ki values of the last two molecules are within 1.5-fold of each other.
Regarding B5, the affinity, expressed as Ki, was 0.98 nM.
In turn, B6 showed a Ki of 5.69 nM. Compared with the last molecule, the Ki is about 5.8-fold higher.

These data come from patent publication US20210139548A1 (published 2021).
